Article PMC7556843 (2020)

Biological target: Ub2 (Homo sapiens)
Test: ITC; values taken from Vincendeau et al.

B1: Human NEMO258-350 C347S (NEMO UBAN domain) (domain or fragment)
chain: MQLEDLKQQLQQAEEALVAKQEVIDKLKEEAEQHKIVMETVPVLKAQADIYKADFQAERQAREKLAEKKELLQEQLEQLQREYSKLKASSQES
modifications: linear (M1-linked) diubiquitin, two 76-residue units fused head to tail; the N-terminal His-tag present in the SAXS sample is left out
  Kd: 1.81 µM
